Experiment: soluble fraction after stress (log2 fold change); higher = more stays soluble; pooled small domains, quantitative proteomics
Details: stress: 75 degC
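Further: 20 min heating vs room temperature control held 20 min.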

Sequence | soluble fraction (log2)
HMFSIDRNIRRLRKEAGLTQEELAQKLFVTRQTISLWELGKVHPDLETLQKLAEQFQVDLLQVLYGPE | -2.33
HMFSLDMDRLVRPGFMASGNVTFSDGVTGKWALDQMGRLALETAQKGYQPSPADVQAFQRELQQQLQRQG | 0.0415
HMFSPTKLKEKRESQGLSQSQLASSLGISRASYFNWESGKTKPNQNNLSKLSEILNVDPRYF | 0.489
HMFSSVSVPAELSNQRFDKVVAELTPDLSRSKIKQLILLGKVLLNGEVTPPKQKVETGDEIEIFYTRQIE | -0.797
HMFTLDIGTIIRNRRLELNLTLEEIGNAVGVSKSTVQKWENGFISNMKRDKISALAKVLNINPVTLITGEY | -3.44
HMFTLNEIIGQKIRNARISAGLTLDELSKMTGISAAQLSSLETGYRRANIDTLYAIAKAIGIDVSNLLKY | -1.39
HMFTRFTVAQDGWTIGGFTAKEMAVSTAKQHAVDTGKPVTVVAHVAGGGSREAIFNSDGTNDKIWN | 0.065
HMFTYEETIGKSADVYLTIPALKAGKGKIIISVRGSVHELDAMTNNAEKISTGAVVKIVRIEHGNILLVEN | -1.69
HMFVEKDSIINKGNNSYNFVITDNNNKVLVEYNGLLPDLFKEEQGVVIEGRLKSDFIIHAFTVF | -0.0707
HMFVGVDMAVKEEIGKEGVAFTDLRPAGKVSIGDDVYDAVSETGAFITRGTSVRVLKYQAGQVYVVK | -1.3
HMFVTFFHELKSAGVPVSLREYLTLMEAMDRDLASRRVEEFYYLARTALVKDERNLDKFDRVFGHVFKGL | -4.08
HMFWVESDVDFVDKTSAHNAIKENERVIGMYISYRLNGTWTTEQYVGIDTSKDNWENPDNWNIL | -1.42
HMFYLPEPLTEQELRILGMLLDGRSNPEIAAELFIAVGTAKWHVHNILQKLGVANRAQAIVKAHELGLT | -2.08
HMFYNELMNFIVYKDSQKIGKIVNINDKLPQPVFEVLINDKKFMVPIHDDFIEKIDKEKKSIHIVIPDGLL | -0.684
HMFYWTDLIGLDVINTADERLGKVVGLIETGANAVLRVMGDDQVERLLPFGSAVVLTVEKEAGQIRVEW | -2.11
HMGAARVTPLYNLRLREGPSTATARLDVVPRGTTLEVRAWDETGDWAQVEYRGQIGWIAAWLAEVEGEAP | -0.69
HMGADSFTGYTPIHKIDNPSDGINDGASYVVYFQKDGTDPTEFYKAVNANASTLAQLTSGTEYDLASSKKL | 0.56
HMGAEIRDKVRAALAGLNPRAAEIFVMRYFDGYGNREIARLLNTSWSTIAVTLHRTRAKLQKELK | -0.0467
HMGAGDKQAQQASLMQIIALQKEGMALGLVEPKHLYHSFSKMIENAGFKDVQSFAVDPSTQQ | -0.0432
HMGAGEQMLPKVMFAEGDRVVHKVFGEGTVVTVDRPAQTYDIQFDKLRGTRRIMFRAELEGI | -0.693
HMGAGLDDLVRKSLHNAGLKADDNVVSWISGNLGSDRMVSRMELEKLVLFVAGQSEITLEDAQAVIGD | -0.524
HMGAGLKIGNDHEYANYLEYKVSVEKYAPGAILGEIKQKGIQFNTTISKTTFYRYITDGVFLTITNADLPV | 0.374
HMGALTGQERRAEIMNILRQSTMPLSGAALGKQLGVSRQVVVQDIALLRQSGEEIYATNRGYVTG | -0.417
HMGAQPLIEPLSERELEVLALIAEGLTNAEIGRRLFIATGTVKRHVNTIYGKLDVHGRIEAIARARDLHLI | -1.25
HMGAQRDFELQLIDVIRQNPGLTYKAYGEKLSVSQATVKRLVAKLKETGSIRREGSQRKGTWIITDD | -1.49
HMGARWPIQDRPLTATEAAAVRRMYAGGLPHGRSKNSVITEVWGDLSNKPKRLDWLNQALEGGA | 0.0155
HMGASGVEVPDVAGMSTAQAVSSLEQKGFVVNRTESYDAGVEKGNVISQSPEGGTKAPNGSAVTIRISQGA | 0.831
HMGASIQITVNNTPVMLKNKTHYTLVDVLDFYPFDLSKMGGTELYTAINGVKSGFTDPVHANDSIEIYWI | -2.49

Sequence | soluble fraction (log2)
HMGASSLVGRSARVLQAVTDSDGRIKLAGETWSARLAAGATSTVGPGEEVRVIAIHGATAIVAPV | -0.581
HMGASVGEVESVKTASEIYTAAAGKIVAVNDAVAKDPSLVNSDPYGNGWLVKLEIADLSAINA | 0.0161
HMGAVDIATARQLISEIGLPIMLKAEGGGGGRGIFAIHNEAELEDAFFKASTMAQASFGNPRLFVEKF | -0.441
HMGAVFEFIMEEEEPERIDKLLSSALPDLSRSYLQKLVKEGAVLVNKKEVKPNHKVNPGDVVEISVPEPE | 0.448
HMGAVGISQKVTSLETAVLGKNFAKDPLIDRVARLEQTVLPKQAEANASLSLPERVSKLLEKVPIAAG | 0.109
HMGAVPKNYFPAVEKGLQDSVQKGLLAGYPVVGVKAILYDGSYHPVDSSEMAFKTATIQAFKKGFMEA | 0.187
HMGAYIPSYAPVDINAATHTVVRGDTVYNISKRYHVSQEDFRAWNGMADNTLSIGQVVKVKPAGYTAPK | -0.267
HMGDAVSRAYFALADDLLKGELTETVSEVLIRTRYELTSAQLQAVLHRIAQEGWAHKKPGYGWEFSAMLT | -2.01
HMGDEHYDTISAFIKSVRGSDPDAALYWLAKMILAGEDPRFILRRLIVLSGEDIGLADPQGI | -0.552
HMGDEPGAGYKWREDVLLRVMSEHGIDESARDDFVRHAVKFDDDDNLYLKKAEIIAAAEAWESSS | 0.359
HMGDFLLQVDFPPALLEMLPEGKRQAAIGVLSHDPRPAYQRTPGRVYGLNFAGHNIRFAVSENLLTVLEV | -2.16
HMGDFLLTPHRGRSADFVIGNPPYIRLEDVPNDISDAYRAEYASMPGRADIHVGFYEKGLDL | -0.117
HMGDFVIVPDLIGKTIEEFDSELNELNLKYIISDSGNYNPDFKINSVLDQLPNANSKVKGGRKIYITLNAS | -1.05
HMGDGAWQQGEGGRWWYKYNNGTYPKDRVVTIGGKKYGFDSEGWMLSDTTKAFGGTTYSFAADGVATAQA | -0.0039
HMGDGYTYYYDDTVLALGFTKIGNDYYIFNTFSGKMYKDATMWVNDNPYGIKGGMHYFDASGKMFV | 0.215
HMGDIFTAEDAKERIDYSGVDGIMLARGIFGNPWLIRDIREYLEYGKILHPVTQLDRVNMAIEHTRKT | 0.169
HMGDIMLLFKENGKVYFLVGNQYTYVKNPTELSAIKTMMKQAGYDTHEHTNTTQVAYIKRLATE | -2.35
HMGDKVLIQTAQRLKKDLPFASIVSRFGGDEFLIFLPGISSTERVETIVKKTVFLFIAISTTLF | -0.28
HMGDLKSLIQATMDDAGISIKPDAMDYLISHLGSDRLTTRAELDKLILYAGADDKLDLDSVVELVG | 0.00366
HMGDLLTVDRVAATSGLGVDTIRYYQRLGLLDPPVRHGRRALYSTAHLDRLVEIRQLADEGFSLAQIATL | -1.05
HMGDLVFDFVHGVHKAAEVEKELVMQALRFTHGNVSRAARLIGMQRSSLRYRIERYRLDAFVMEVAN | 0.276
HMGDPSSERNIQKSIFILIGEKALSVQDISRSLGMPNDIIDKALISGVERNLWLSSDKGEYYL | -1.2
HMGDRRSVFEQSVLDAIKSLVKQGELATTKAISDHIGTNYQGNVSRAITALLADNKIKKLPKEGVLQPYEA | -0.0172
HMGDSFLDHKKELQSMILSRLDLSREVPDEEIKDIIDELIIAQSKKLFLSLNDRGKLRQELFYSIRK | -1.23
HMGDSVLNDKLNTLAGLDEERFKWVLASLNPNNSYSTHSDKMSALMWLVSYFNDEADLKETVPPLPI | -0.189
HMGDTIFINNNFYVKHIVEFGETIDIISKIYDVSVNKILETNETSTKLYSGQSLFIPININV | -3.47
HMGDTLEIVVIYSNKQKAEEAVNNLKGKFEDLGYNFAIITVDTSKITQLAMESSIQYIEFPKSFYFSD | -4.25
